In US20240174755A1 (published 2024):

Tests used:
[1] = target: human PDGFR β on HEK293-PDGFR β cells (human) (UniProt P09619); test: HEK293-PDGFRβ cells with 500 uM liposome on ice, plate reader
[2] = target: human PDGFR β on HEK293-PDGFR β cells (human) (UniProt P09619); test: HEK293-PDGFRβ cells with 500 uM liposome, plate reader
[3] = target: human PDGFR β on HEK293-PDGFR β cells (human) (UniProt P09619); test: time course on HEK293-PDGFRβ cells, plate reader
[4] = target: human PDGFR β on HEK293-PDGFR β cells (human) (UniProt P09619); test: time course on HEK293-PDGFRβ cells, plate reader; not statistically significant
[5] = target: human PDGFR β on HEK293-PDGFR β cells (human) (UniProt P09619); test: HEK293-PDGFRβ cells with 500 uM liposome, plate reader (data not shown)
[6] = target: human PDGFR β on HEK293-PDGFR β cells (human) (UniProt P09619); test: FACS dose response, 1 h at 37° C.
[7] = target: human PDGFR β on HEK293-PDGFR β cells (human) (UniProt P09619); test: cell binding on ice for 1 h, fluorescence plate reader
[8] = target: human PDGFR β on HEK293-PDGFR β cells (human) (UniProt P09619); test: FACS dose response, dialyzed VHH-HL488 batch (data not shown)
[9] = target: human PDGFR β on HEK293-PDGFR β cells (human) (UniProt P09619); test: FACS, 1-10 nM VHH-HL488, 1 h
[10] = target: T1, human PDGFR β extra-cellular domain (ECD), Fc- and His-tagged (Sino Biological) (human, UniProt P09619 33-532); test: SPR (Biacore 3000), Fc/His PDGFR β ECD captured on protein A; 1B5 construct not stated
T1 construct: extracellular domain; Bought; also called hECD; Fc/His-tagged PDGFR β ECD; not shown: Fc tag and His tag
Method: FIG. 11: VHH (flag-his-tagged, or conjugated with HL488, NOTA or 800 CW) binding to human extracellular domain (ECD) of PDGFR β assessed with surface plasmon resonance (SPR). Fc/His-tagged PDGFR β ECD was bound to protein A chemically conjugated to CM4 sensor chip. Binding of VHHs was tested at 0.39-50 nM. Shown are representative SPR Biacore traces of tagged or conjugated 1B5 VHH (panels A); tagged or conjugated 1D4 VHH (panels B); tagged or conjugated 1H4 VHH (panels C) or tagged VHH 1E12 (panel D).
SPR analysis was performed using the Biacore 3000 instrument (GE Healthcare). Protein A was chemically bound to a CM4 sensor chip (GE Healthcare) according to the primary amine procedure to approximately 2100 response units (RU). Fc/His-tagged PDGFR β ECD at 0.4-2.07 ng/ul was bound to protein A at flow rate of 35 ul/min. Run buffer HBS-EP (GE Healthcare; 0.01 M HEPES pH 7.4, 0.15 M NaCl, 3 mM EDTA, 0.005% v/v Surfactant P20) was used for VHHs 1D4, 1H4 and 1E12 conjugates at 50, 25, 12.5, 6.25, 3.13, 1.56, 0.78 and 0.39 nM. For 1B5 conjugates, HBS-EP+0.5 M NaSCN was as run buffer to reduce non-specific binding to a control path without PDGFR β ECD. A flow rate 70 ul/min was used for VHH injections in volumes of 150 ul. Regeneration of the sensor CM4 chip was performed by three successive injections of c. 30 s 10 mM glycine-HCl pH 2, 10 mM glycine-HCl pH 1.5, and 0.5 M NaSCN/10 mM NaOH.

[11] = target: human PDGFR β ECD (U-protein Express, Utrecht) (human) (UniProt P09619); test: dose response ELISA, PDGFR β ECD coated at 2 µg/ml, rabbit anti-VHH detection
[12] = target: T2, human PDGFRa (Sino Biological; Cat. Number 10556-HCCH) (human, UniProt P16234 24-524, limits assumed); test: direct ELISA, PDGFRa coated, streptavidin-HRP detection
T2 construct: Bought; construct not described; also called PDGFRα
Method: (§1) 96-well maxisorp (Nunc) immunosorp plates were coated with 2 ug/ml of human PDGFRa (Sino Biological; Cat. Number; 10556-HCCH) or 2 ug/ml human EGFR/HER1/ErbB1 Protein (His Tag, Sino Biological; Cat. Number; 10001-H08H) in PBS, 100 ul per well, at 4C overnight. Wells were washed thrice in PBS. Unspecific binding sites were blocked in 4% BSA/PBS for 1 h at RT, followed by washing thrice in PBS. VHH-biotin conjugates, diluted at 0.01-100 nM in 1% BSA/PBS, were incubated for 1 h at RT, followed by washing thrice in PBS. Streptavidin-horseradish peroxidase (HRP; GeneTex) was diluted 1:40,000 in 1% BSA/PBS and was incubated for 1 h at RT. PDGFRa or EGFR was detected with positive control antibodies rabbit anti-human PDGFRa/CD140a Antibody, (Cat no: 10556-R065) or rabbit anti-human EGFR/HER1/ErbB1 (Catalog no: 10001-R021, both from Sino Biological) diluted in 1% BSA/PBS at 1:5000 and were incubated for 1 h at RT, shaking. Secondary HRP-conjugated anti-rabbit-antibody was diluted at 1:5000 in 1% BSA/PBS and was incubated for 1 h at RT, shaking. Wells were washed 6 times in PBS. o-Phenylenediamine dihydrochloride (OPD; Sigma-Aldrich) was used as HRP substrate at 0.4 mg/ml in 0.05 M phosphate-citrate buffer pH 5.0 with 0.03% sodium perborate (Sigma-Aldrich), prepared according to the manufacturer's recommendations, and was used in volume of 100 ul per well. Reaction was allowed to proceed for 30 min at RT in dark, and was stopped by adding 50 ul of 1.5 M HCl. Optical density was measured at 492 nm on a Synergy H1 microplate reader (BioTek).
VHH-biotin binding to human PDGFRa was assessed using an ELISA, where wells were coated with PDGFRa, and VHH-biotin binding was detected using streptavidin-HRP with OPD as a substrate.

[13] = target: T1, human PDGFR β extra-cellular domain …; test: biotin-streptavidin ELISA, human PDGFR β ECD coated at 1 ug/ml
Method: In this example, the binding affinity of biotin-conjugated VHHs 1B5 and 1E12 to either human or mouse PDGFR β extra-cellular domain (ECD) was assessed using biotin-streptavidin ELISA. Human or mouse PDGFR β ECD was coated on immunoassay wells, where 1B5-biotin or 1E12-biotin were captured. Binding was detected using streptavidin-HRP and ODP as a substrate.
ELISA Method 96-well maxisorp (Nunc) immunosorp plates were coated with 1 ug/ml or 2 ug/ml of PDGFR β extracellular domain (ECD; Fc- and His-tagged, Sino Biological) or mouse PDGFR β ECD (R&D Systems) 4 ug/ml in PBS, 100 ul per well, at 4C overnight. Wells were washed thrice in PBS. Unspecific binding sites were blocked in 4% BSA/PBS for 1h at RT, followed by washing thrice in PBS. VHHs 1B5-biotin or 1E12-biotin, diluted at 0.01-100 nM in 1% BSA/PBS, was allowed to bind on ECD for 1 h at RT, followed by washing thrice in PBS. Streptavidin-horseradish peroxidase (HRP; GeneTex) was diluted 1:10,000 in 1% BSA/PBS and was incubated for 1 h at RT. […] Optical density was measured at 492 nm on a Synergy H1 microplate reader (BioTek). […]

[14] = target: T3, human EGFR/HER1/ErbB1 Protein (His Tag, Sino Biological; Cat. Number 10001-H08H) (human, UniProt P00533 25-645); test: direct ELISA, EGFR coated, streptavidin-HRP detection
T3 construct: Bought; construct not described; not shown: His tag
Method: as §1

[15] = target: human PDGFR β on HEK293-PDGFR β cells (human) (UniProt P09619); test: FACS dose response, 1 h at 37° C. (MFI)

B1: 1B5-liposome-100 (protein)
VHH: EVQLVESGGGLVQPGGSLRLSCVASGFSFSESAMSWVRQAPGKGLEWLSGISSGGGRSTTYAESVEGRFTISRDDAKNTLMLQMNSLKSEDTAVYYCAKTGYCSGYNCNFAPRGQGTQVTVSS
modifications: coupled to maleimide-PEG-DSPE and post-inserted into calcein/rhodamine PE liposomes; 100 nanobodies per liposome
Q: Which results are given for B1?
A: fold calcein fluorescence over non-targeted control, on ice (binding) [1]: 1.8 fold; fold calcein fluorescence over non-targeted liposome-0, 37° C. (binding and uptake) [2]: 3.4 fold; fold calcein fluorescence over liposome-0, 3 h (uptake) [3]: 4.7 fold; fold calcein fluorescence over liposome-0, 6 h (uptake) [3]: 5.1 fold; fold calcein fluorescence over liposome-0, 0 h (binding and/or uptake) [4]: 2.2 fold; fold calcein fluorescence over liposome-0, 1 h (binding and/or uptake) [4]: 2.8 fold; fold rhodamine PE signal, 37° C. [5]: 2.4 fold

B2: 1B5-HL488 (VHH, not shown: small tags and cut ends)
VHH: B1 VHH
modifications: HiLyte Fluor 488-maleimide on the C-terminal cysteine of the C-Direct tag
Q: With B2 as the binder, how does the detection limit [6] read?
A: Its detection limit is 0.1 nM.

Q: And the detection limit [7]?
A: Its detection limit is 1 nM.

Q: And the concentration at which detectable by FACS [8]?
A: Its concentration at which detectable by FACS is 1 nM.

Q: What about the MFI at 4° C. (binding) as percent of MFI at 37° C. (binding and uptake) [9] of the same binder?
A: The MFI at 4° C. (binding) as percent of MFI at 37° C. (binding and uptake) was 52 to 58%.

B3: QPD-1B5 (VHH)
VHH: B1 VHH
notes: Purified, unconjugated VHH; also called VHH 1B5
Q: For B3, which Kd [10] is on record?
A: The Kd was 0.004 to 0.005 nM.

Q: What about the apparent affinity [11] of the same binder?
A: The apparent affinity was 1 nM.

B4: 1B5-biotin (VHH)
VHH: B1 VHH
modifications: Biotin-maleimide on the C-terminal cysteine of the C-Direct tag
notes: ID NO: 25 or 26; also called VHH 1B5-biotin; biotin-conjugated 1B5; not shown: C-terminal C-Direct tag with a free cysteine and an EPEA purification tag (vector pYQVQ11)
Q: Does B4 bind [12]?
A: Result: no binding (tested: 0.01-100 nM)

Q: What about the EC50 [13] of the same binder?
A: The EC50 was 0.117 nM.

Q: Does B4 bind [14]?
A: Result: no binding (tested: 0.01-100 nM)

B5: QPD-1E12 (VHH)
VHH: EVQLVESGGGLVQAGGSLRLSCAPSERSFSAYLMGWFRQAQGKEREFVAAWRWPTSTTYYSDSGKGRFTITGDNAKNTVELEMNSLKPEDTAVYYCAARRGILYGPATSPTAYDFWGQGTQVTVSS
Q: How did the apparent affinity [11] turn out when B5 was run?
A: The apparent affinity was 10 nM.

B6: 1E12-HL488 (VHH, not shown: small tags and cut ends)
VHH: B5 VHH
modifications: HiLyte Fluor 488-maleimide on the C-terminal cysteine of the C-Direct tag
Q: How did the lowest concentration detectably bound or taken up (percentage of HL488-positive population) [6] turn out when B6 was run?
A: The lowest concentration detectably bound or taken up (percentage of HL488-positive population) was 10 nM.

Q: What about the detection limit [15] of the same binder?
A: The detection limit was 100 nM.

B7: QPD-1H4 (VHH)
VHH: EVQLVESGGGLVQPGGSLRVSCSASWRTGNPFAMAWFRQAPGKERELIARISWTAGRTEYAESAKGRFTISRDVAKKTMYLQMNSLTPEDTGVYFCAARFVPSSGPTVFDTWGQGTQVTVSS
Q: B7 was tested. Which apparent affinity [11] did it give?
A: Its apparent affinity is less than 1 nM.

B8: 1H4-biotin (VHH)
VHH: B7 VHH
modifications: Biotin-maleimide on the C-terminal cysteine of the C-Direct tag
notes: ID NO: 29 or 30; also called biotin-conjugated 1H4; VHH-biotin; not shown: C-terminal C-Direct tag with a free cysteine and an EPEA purification tag (vector pYQVQ11)
Q: Does B8 bind [12]?
A: Result: no binding (tested: 0.01-100 nM)

Q: Does B8 bind [14]?
A: Result: no binding (tested: 0.01-100 nM)

B9: 1H4-HL488 (VHH, not shown: small tags and cut ends)
VHH: B7 VHH
modifications: HiLyte Fluor 488-maleimide on the C-terminal cysteine of the C-Direct tag
Q: What does the source list for B9?
A: detection limit [6]: 0.1 nM; concentration at which detectable by FACS [8]: 10 nM; MFI at 4° C. (binding) as percent of MFI at 37° C. (binding and uptake) [9]: 65 to 66%

B10: 1D4-HL488 (VHH, not shown: small tags and cut ends)
VHH: EVQLVESGGGLVQAGDSLRLSCAVSGRAQSRDVVGWFRQAPGKEREFLALVTRSYSTYYGASVKGRFTISRDNAKNTVHLEMNSLKPEDTGVYYCAADQGFCSGSGCYDWRTFHVWGQGTQVTVSS
modifications: HiLyte Fluor 488-maleimide on the C-terminal cysteine of the C-Direct tag
Q: B10 was tested. Which detection limit [6] did it give?
A: Its detection limit is 0.1 nM.

Q: And the concentration at which detectable by FACS [8]?
A: The concentration at which detectable by FACS was 1 nM.

Q: And the MFI at 4° C. (binding) as percent of MFI at 37° C. (binding and uptake) [9]?
A: Its MFI at 4° C. (binding) as percent of MFI at 37° C. (binding and uptake) is 53 to 61%.

B11: 1D4-biotin (VHH)
VHH: B10 VHH
modifications: Biotin-maleimide on the C-terminal cysteine of the C-Direct tag
notes: ID NO: 27 or 28; also called biotin-conjugated 1D4; VHH-biotin; not shown: C-terminal C-Direct tag with a free cysteine and an EPEA purification tag (vector pYQVQ11)
Q: Does B11 bind [12]?
A: Result: no binding (tested: 0.01-100 nM)

Q: Does B11 bind [14]?
A: Result: no binding (tested: 0.01-100 nM)
